The values that follow come from IntAct's records for PubMed 10764785.

The assay deals with rpod_ecoli rpoD (UniProt P00579).
rpod_ecoli rpoD, sequence (P00579 whole entry): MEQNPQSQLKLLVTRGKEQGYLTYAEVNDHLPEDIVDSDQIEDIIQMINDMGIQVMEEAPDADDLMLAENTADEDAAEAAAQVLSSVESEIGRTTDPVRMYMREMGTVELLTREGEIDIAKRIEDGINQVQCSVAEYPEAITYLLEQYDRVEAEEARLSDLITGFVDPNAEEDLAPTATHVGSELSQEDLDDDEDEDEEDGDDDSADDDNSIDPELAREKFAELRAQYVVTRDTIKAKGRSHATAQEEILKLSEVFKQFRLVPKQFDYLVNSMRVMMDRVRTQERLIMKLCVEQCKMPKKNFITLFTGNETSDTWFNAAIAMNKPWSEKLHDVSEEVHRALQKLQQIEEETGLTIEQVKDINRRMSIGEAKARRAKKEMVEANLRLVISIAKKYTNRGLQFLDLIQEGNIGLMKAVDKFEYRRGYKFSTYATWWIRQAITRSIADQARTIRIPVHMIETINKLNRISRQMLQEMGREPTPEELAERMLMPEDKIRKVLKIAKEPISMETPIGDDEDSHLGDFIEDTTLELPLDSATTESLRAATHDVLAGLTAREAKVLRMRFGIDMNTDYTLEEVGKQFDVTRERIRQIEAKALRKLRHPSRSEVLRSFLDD

Take “DNA-directed RNA polymerase subunit beta' (Escherichia coli (strain K12)) (from UniProt P0A8T7) Q300E”: the “effect of a mutation on the interaction” value is “increasing interaction”.
Then “DNA-directed RNA polymerase subunit beta' (Escherichia coli (strain K12)) (from UniProt P0A8T7) A302D”, with “decreasing interaction”.
For “DNA-directed RNA polymerase subunit beta' (Escherichia coli (strain K12)) (from UniProt P0A8T7) R293Q”, the “effect of a mutation on the interaction” value was “decreasing interaction”.
For “DNA-directed RNA polymerase subunit beta' (Escherichia coli (strain K12)) (from UniProt P0A8T7) R297S”, the “effect of a mutation on the interaction” value is listed as “decreasing interaction”.
Then “DNA-directed RNA polymerase subunit beta' (Escherichia coli (strain K12)) (from UniProt P0A8T7) N309D”, with “increasing interaction”.
As to “DNA-directed RNA polymerase subunit beta' (Escherichia coli (strain K12)) (from UniProt P0A8T7) R275Q”, the “effect of a mutation on the interaction” value was “decreasing interaction”.
Take “DNA-directed RNA polymerase subunit beta' (Escherichia coli (strain K12)) (from UniProt P0A8T7) E295K”: the “effect of a mutation on the interaction” value is given as “decreasing interaction”.
